# Test results published in doi:10.1101/2022.04.14.487897 (bioRxiv, 2022).
# Tests used:
# mortalin (HSPA9) [1] = molecular target: mortalin (HSPA9) (UniProt P38646); assay: MST
# [2] = molecular target: H26Y cytochrome c (globular structure, high peroxidase activity) (UniProt P00004); assay: enzyme inhibition
# mortalin (HSPA9) [3] = molecular target: mortalin (HSPA9) (UniProt P38646 47-679, Alexa 647 dye (NanoTemper) / NT-647 label); assay: MST
# [4] = molecular target: ferrous cytochrome c (Fe2+), horse heart (horse, UniProt P00004 1-105, heme iron ferrous (Fe^2+)); assay: enzyme inhibition
# ferrous cytochrome c (Fe2+), horse heart, sequence (P00004 whole entry): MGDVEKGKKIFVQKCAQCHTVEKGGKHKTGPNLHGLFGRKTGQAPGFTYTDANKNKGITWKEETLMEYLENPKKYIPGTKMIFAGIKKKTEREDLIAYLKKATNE
# mortalin (HSPA9) (UniProt P38646 47-679, Alexa 647 dye (NanoTemper) / NT-647 label), sequence (P38646 47-679): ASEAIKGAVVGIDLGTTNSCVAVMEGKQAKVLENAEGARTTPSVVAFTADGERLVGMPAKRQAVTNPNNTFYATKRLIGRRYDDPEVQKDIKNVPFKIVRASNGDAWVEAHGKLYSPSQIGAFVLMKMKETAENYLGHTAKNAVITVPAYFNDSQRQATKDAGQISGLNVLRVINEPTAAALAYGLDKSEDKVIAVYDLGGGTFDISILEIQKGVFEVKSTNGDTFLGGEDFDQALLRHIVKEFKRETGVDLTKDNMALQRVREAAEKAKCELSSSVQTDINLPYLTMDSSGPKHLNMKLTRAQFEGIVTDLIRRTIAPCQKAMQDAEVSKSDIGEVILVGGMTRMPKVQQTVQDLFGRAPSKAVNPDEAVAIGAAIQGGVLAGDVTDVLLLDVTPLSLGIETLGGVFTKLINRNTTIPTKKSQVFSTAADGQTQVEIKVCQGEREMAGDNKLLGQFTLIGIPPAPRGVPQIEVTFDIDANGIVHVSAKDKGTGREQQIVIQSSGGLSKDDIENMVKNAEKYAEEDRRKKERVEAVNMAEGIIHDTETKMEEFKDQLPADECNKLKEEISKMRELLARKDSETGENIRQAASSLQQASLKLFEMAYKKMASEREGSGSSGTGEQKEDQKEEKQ
# mortalin (HSPA9) (UniProt P38646), sequence (P38646 47-679): as above
Ki [2] [nM],Ki [4] [nM],Molecule,Kd (mortalin (HSPA9) [1]) [nM],Kd (mortalin (HSPA9) [3]) [nM]
–,–,Bcl-2 (from UniProt P10415 1-239) (natural protein),171,–
3540,1430,"full-length human p66Shc (wildtype) (natural protein, UniProt P29353-1 1-583, looked up, Alexa 647 label (only in the MST with cytochrome c, where p66Shc was the labelled protein)) MDLLPPKPKYNPLRNESLSSLEEGASGSTPPEELPSPSASSLGPILPPLPGDDSPTTLCSFFPRMSNLRLANPAGGRPGSKGEPGRAADDGEGIVGAAMPDSGPLPLLQDMNKLSGGGGRRTRVEGGQLGGEEWTRHGSFVNKPTRGWLHPNDKVMGPGVSYLVRYMGCVEVLQSMRALDFNTRTQVTREAISLVCEAVPGAKGATRRRKPCSRPLSSILGRSNLKFAGMPITLTVSTSSLNLMAADCKQIIANHHMQSISFASGGDPDTAEYVAYVAKDPVNQRACHILECPEGLAQDVISTIGQAFELRFKQYLRNPPKLVTPHDRMAGFDGSAWDEEEEEPPDHQYYNDFPGKEPPLGGVVDMRLREGAAPGAARPTAPNAQTPSHLGATLPVGQPVGGDPEVRKQMPPPPPCPGRELFDDPSYVNVQNLDKARQAVGGAGPPNPAINGSAPRDLFDMKPFEDALRVPPPPQSVSMAEQLRGEPWFHGKLSRREAEALLQLNGDFLVRESTTTPGQYVLTGLQSGQPKHLLLVDPEGVVRTKDHRFESVSHLISYHMDNHLPIISAGSELCLQQPVERKL",–,858
